Test results: patent US20190119318A1

How the values were obtained:
[1] = target: human polyclonal IgG (Gammanorm) (human); assay: column DBC; vs reference Zvar4; 0.5 M NaOH
[2] = target: human polyclonal IgG (Gammanorm) (human); assay: column DBC; vs reference Zvar4; 1.0 M NaOH
[3] = target: human polyclonal IgG (Gammanorm) (human); assay: column DBC; ligand 9.7 mg/ml; after 6 x 4 h 0.5 M NaOH
[4] = target: human polyclonal IgG (Gammanorm) (human); assay: column DBC; ligand 9.7 mg/ml; after 6 x 4 h 1.0 M NaOH
[5] = target: human polyclonal IgG (Gammanorm) (human); assay: column DBC, 6 min residence; agarose beads; ligand 9.7 mg/ml
[6] = target: human polyclonal IgG (Gammanorm) (human); assay: as above; remark: listed apart in the source
[7] = target: human polyclonal IgG (Gammanorm) (human); assay: column DBC; ligand […]; after 6 x 4 h 0.5 M NaOH
[8] = target: human polyclonal IgG (Gammanorm) (human); assay: column DBC, 6 min residence; agarose beads; ligand […]
[9] = target: human polyclonal IgG (Gammanorm) (human); assay: column DBC; ligand 7.0 mg/ml; after 6 x 4 h 0.5 M NaOH
[10] = target: human polyclonal IgG (Gammanorm) (human); assay: column DBC, 6 min residence; agarose beads; ligand 7.0 mg/ml
[11] = target: human polyclonal IgG (Gammanorm) (human); assay: column DBC; ligand […]; after 6 x 4 h 1.0 M NaOH
[12] = target: human polyclonal IgG (Gammanorm) (human); assay: column DBC; ligand 7.2 mg/ml; after 6 x 4 h 0.5 M NaOH
[13] = target: human polyclonal IgG (Gammanorm) (human); assay: column DBC, 6 min residence; agarose beads; ligand […]; remark: listed apart in the source
[14] = target: human polyclonal IgG (Gammanorm) (human); assay: column DBC, 6 min residence; agarose beads; ligand 7.2 mg/ml
[15] = target: human polyclonal IgG (Gammanorm) (human); assay: column DBC; base C3; ligand […]
[16] = target: human polyclonal IgG (Gammanorm) (human); assay: column DBC; base A20; ligand […]
[17] = target: human polyclonal IgG (Gammanorm) (human); assay: column DBC; base A33; ligand […]; conditions: ligand content 6.5 mg/ml
[18] = target: human polyclonal IgG (Gammanorm) (human); assay: column DBC; base A38; ligand […]
[19] = target: human polyclonal IgG (Gammanorm) (human); assay: column DBC; base A54; ligand […]; conditions: ligand content 6.7 mg/ml
[20] = target: human polyclonal IgG (Gammanorm) (human); assay: column DBC; base A56; ligand […]; conditions: ligand content 7.1 mg/ml
[21] = target: human polyclonal IgG (Gammanorm) (human); assay: column DBC; base H31; ligand […]
[22] = target: human polyclonal IgG (Gammanorm) (human); assay: column DBC; base H35; ligand […]
[23] = target: human polyclonal IgG (Gammanorm) (human); assay: column DBC; base H40; ligand […]; conditions: ligand content 6.9 mg/ml
[24] = target: human polyclonal IgG (Gammanorm) (human); assay: column DBC; base A62a; ligand […]
[25] = target: human polyclonal IgG (Gammanorm) (human); assay: column DBC; base A56-2; ligand […]
[26] = target: human polyclonal IgG (Gammanorm) (human); assay: SPR; vs reference Zvar6; 0.5 M NaOH
[27] = target: human polyclonal IgG (Gammanorm) (human); assay: SPR; after 100 CIP cycles 0.5 M NaOH
[28] = target: human polyclonal IgG (Gammanorm) (human); assay: column DBC; base A20; ligand 6.4 mg/ml
[29] = target: human polyclonal IgG (Gammanorm) (human); assay: column DBC; base A56; ligand 7.9 mg/ml
[30] = target: human polyclonal IgG (Gammanorm) (human); assay: column DBC; base C3; ligand 11.9 mg/ml
[31] = target: human polyclonal IgG (Gammanorm) (human); assay: column DBC; base C3; ligand 15.1 mg/ml
[32] = target: human polyclonal IgG (Gammanorm) (human); assay: column DBC; base C4; ligand 11.2 mg/ml
[33] = target: human polyclonal IgG (Gammanorm) (human); assay: column DBC; base C4; ligand 15.2 mg/ml
[34] = target: human polyclonal IgG (Gammanorm) (human); assay: column DBC; base S9; ligand 18.4 mg/ml
[35] = target: human polyclonal IgG (Gammanorm) (human); assay: column DBC; base A20; ligand 21.1 mg/ml
[36] = target: human polyclonal IgG (Gammanorm) (human); assay: column DBC; base A38; ligand 11.6 mg/ml
[37] = target: human polyclonal IgG (Gammanorm) (human); assay: column DBC; base A38; ligand 15.8 mg/ml
[38] = target: human polyclonal IgG (Gammanorm) (human); assay: column DBC; base A54; ligand 21.1 mg/ml
[39] = target: human polyclonal IgG (Gammanorm) (human); assay: column DBC; base A56; ligand 15.2 mg/ml
[40] = target: human polyclonal IgG (Gammanorm) (human); assay: column DBC; base A56; ligand 19.2 mg/ml
[41] = target: human polyclonal IgG (Gammanorm) (human); assay: column DBC; base A62a; ligand 9.6 mg/ml
[42] = target: human polyclonal IgG (Gammanorm) (human); assay: column DBC; base A63b; ligand 6.4 mg/ml
[43] = target: human polyclonal IgG (Gammanorm) (human); assay: column DBC; base H31; ligand 20.0 mg/ml
[44] = target: human polyclonal IgG (Gammanorm) (human); assay: column DBC; base H35; ligand 12.3 mg/ml
[45] = target: human polyclonal IgG (Gammanorm) (human); assay: column DBC; base H35; ligand 20.3 mg/ml
[46] = target: human polyclonal IgG (Gammanorm) (human); assay: column DBC; base H40; ligand 23.0 mg/ml
[47] = target: human polyclonal IgG (Gammanorm) (human); assay: column DBC; base P10; ligand 19.0 mg/ml
[48] = target: human polyclonal IgG (Gammanorm) (human); assay: column DBC; base A63b; ligand 10.6 mg/ml
[49] = target: human polyclonal IgG (Gammanorm) (human); assay: column DBC; base A63b; ligand 16.7 mg/ml
[50] = target: human polyclonal IgG (Gammanorm) (human); assay: column DBC; base A56-2; ligand 12.5 mg/ml
[51] = target: human polyclonal IgG (Gammanorm) (human); assay: column DBC; base A56-2; ligand 19.2 mg/ml
[52] = target: human polyclonal IgG (Gammanorm) (human); assay: column DBC; ligand 10.8 mg/ml; after 6 x 4 h 0.5 M NaOH
[53] = target: human polyclonal IgG (Gammanorm) (human); assay: column DBC, 6 min residence; agarose beads; ligand 10.8 mg/ml

Substance “Zvar(N11K,H18K,S33K,D37E,A42R,N43A,L44I,K50R,L51Y)4 with an additional N-terminal cysteine (designed binder)” has a capacity retention relative to ref. after six 4 h cycles [1] of 1.53, a capacity retention relative to ref. after six 4 h cycles [2] of 1.44 and a remaining IgG capacity Qb10 after six 4 h cycles [3] of 52 mg/mL. For the same substance, the remaining IgG capacity after six 4 h cycles [3] was 92%, the remaining IgG capacity Qb10 after six 4 h cycles [4] was 48.1 mg/mL and the remaining IgG capacity after six 4 h cycles [4] was 77%. It also gave an initial IgG capacity Qb10 [5] of 56.3 mg/mL and an initial IgG capacity Qb10 [6] of 62.1 mg/mL.

“Zvar(Q9A,N11E,N28A,N43A)4 with an additional N-terminal cysteine (designed binder)” gave a capacity retention relative to ref. after six 4 h cycles ([1]; ligand content 7.0 mg/ml) of 1.5, a remaining IgG capacity Qb10 after six 4 h cycles [7] of 46.2 mg/mL and a remaining IgG capacity after six 4 h cycles [7] of 93%. It also gave an initial IgG capacity Qb10 [8] of 50 mg/mL, a remaining IgG capacity Qb10 after six 4 h cycles [9] of 44.1 mg/mL and a remaining IgG capacity after six 4 h cycles [9] of 90%. The initial IgG capacity Qb10 [10] was 49.1 mg/mL.

“Zvar(Q9A,N11E,Q40V,A42K,N43A,L44I)4 with an additional N-terminal cysteine (designed binder)” gave a capacity retention relative to ref. after six 4 h cycles ([1]; ligand content 7.2 mg/ml) of 1.5, a capacity retention relative to ref. after six 4 h cycles [2] of 1.67 and a remaining IgG capacity Qb10 after six 4 h cycles [7] of 53.6 mg/mL. The remaining IgG capacity after six 4 h cycles [7] was 95%, the remaining IgG capacity Qb10 after six 4 h cycles [11] was 56 mg/mL and the remaining IgG capacity after six 4 h cycles [11] was 93%. The initial IgG capacity Qb10 [8] was 56.3 mg/mL, the remaining IgG capacity Qb10 after six 4 h cycles [12] was 44.2 mg/mL and the remaining IgG capacity after six 4 h cycles [12] was 90%. The initial IgG capacity Qb10 [13] was 60.3 mg/mL and the initial IgG capacity Qb10 [14] was 49 mg/mL.

For “Zvar(Q9A,N11E,Q40V,A42K,N43A,L44I)6 (designed binder)”, the Qb10% 2.4 min [15] was 48 mg/mL, the Qb10% 6 min [15] was 59 mg/mL and the Qb10% 2.4 min [16] was 38 mg/mL. The Qb10% 6 min [16] was 64 mg/mL, the Qb10% 2.4 min [17] was 44 mg/mL and the Qb10% 6 min [17] was 53 mg/mL. The Qb10% 2.4 min [18] was 47 mg/mL, the Qb10% 6 min [18] was 57 mg/mL and the Qb10% 2.4 min [19] was 38 mg/mL. It also gave a Qb10% 6 min [19] of 46 mg/mL, a Qb10% 2.4 min [20] of 48 mg/mL and a Qb10% 6 min [20] of 57 mg/mL. The Qb10% 2.4 min ([21]; ligand content 6.5 mg/ml) was 37 mg/mL, the Qb10% 6 min ([21]; ligand content 6.5 mg/ml) was 38 mg/mL and the Qb10% 2.4 min ([21]; ligand content 10.4 mg/ml) was 50 mg/mL. The Qb10% 6 min ([21]; ligand content 10.4 mg/ml) was 61 mg/mL, the Qb10% 2.4 min [22] was 36 mg/mL and the Qb10% 6 min [22] was 49 mg/mL. For the same substance, the Qb10% 2.4 min [23] was 50 mg/mL, the Qb10% 6 min [23] was 56 mg/mL and the Qb10% 2.4 min [24] was 62 mg/mL. The Qb10% 6 min [24] was 84 mg/mL, the Qb10% 2.4 min [25] was 50 mg/mL and the Qb10% 6 min [25] was 58 mg/mL. It also gave a capacity relative to ref. 100 cycles [26] of 1.3, a remaining capacity 100 cycles [27] of 87% and a Qb10% 2.4 min [28] of 41 mg/mL. It also gave a Qb10% 6 min [28] of 56 mg/mL, a Qb10% 2.4 min [29] of 47 mg/mL and a Qb10% 6 min [29] of 55 mg/mL. For the same substance, the Qb10% 2.4 min [30] was 51 mg/mL, the Qb10% 6 min [30] was 73 mg/mL and the Qb10% 2.4 min [31] was 43 mg/mL. It also gave a Qb10% 6 min [31] of 61 mg/mL, a Qb10% 2.4 min [32] of 62 mg/mL and a Qb10% 6 min [32] of 74 mg/mL. It also gave a Qb10% 2.4 min [33] of 57 mg/mL, a Qb10% 6 min [33] of 82 mg/mL and a Qb10% 2.4 min [34] of 56 mg/mL. The Qb10% 6 min [34] was 75 mg/mL, the Qb10% 2.4 min [35] was 44 mg/mL and the Qb10% 6 min [35] was 43 mg/mL. It also gave a Qb10% 2.4 min [36] of 48 mg/mL, a Qb10% 6 min [36] of 72 mg/mL and a Qb10% 2.4 min [37] of 36 mg/mL. For the same substance, the Qb10% 6 min [37] was 62 mg/mL, the Qb10% 2.4 min [38] was 38 mg/mL and the Qb10% 6 min [38] was 65 mg/mL. It also gave a Qb10% 2.4 min [39] of 48 mg/mL, a Qb10% 6 min [39] of 76 mg/mL and a Qb10% 2.4 min [40] of 55 mg/mL. The Qb10% 6 min [40] was 80 mg/mL, the Qb10% 2.4 min [41] was 56 mg/mL and the Qb10% 6 min [41] was 72 mg/mL. The Qb10% 2.4 min [42] was 42 mg/mL, the Qb10% 6 min [42] was 46 mg/mL and the Qb10% 2.4 min [43] was 31 mg/mL. The Qb10% 6 min [43] was 52 mg/mL, the Qb10% 2.4 min [44] was 31 mg/mL and the Qb10% 6 min [44] was 54 mg/mL. The Qb10% 2.4 min [45] was 20 mg/mL, the Qb10% 6 min [45] was 43 mg/mL and the Qb10% 2.4 min [46] was 41 mg/mL. For the same substance, the Qb10% 6 min [46] was 65 mg/mL, the Qb10% 6 min [47] was 76 mg/mL and the Qb10% 2.4 min [48] was 49 mg/mL. It also gave a Qb10% 6 min [48] of 60 mg/mL, a Qb10% 2.4 min [49] of 53 mg/mL and a Qb10% 6 min [49] of 69 mg/mL. It also gave a Qb10% 2.4 min [50] of 59 mg/mL, a Qb10% 6 min [50] of 72 mg/mL and a Qb10% 2.4 min [51] of 61 mg/mL. For the same substance, the Qb10% 6 min [51] was 82 mg/mL.

Substance “Zvar(Q9A,N11K,H18K,D37E,A42R)4 with an additional N-terminal cysteine (designed binder)” has a capacity retention relative to ref. after six 4 h cycles [1] of 1.3, a remaining IgG capacity Qb10 after six 4 h cycles [52] of 52.5 mg/mL and a remaining IgG capacity after six 4 h cycles [52] of 92%. The initial IgG capacity Qb10 [53] was 56.9 mg/mL.
